18 molecules from patent US20200385445A1 (COMPUGEN, published 2020) can be followed below.

The test has as its target T1, human PVRIG (Poliovirus Receptor Related Immunoglobulin Domain Containing Protein), full length on cells (human, UniProt Q6DKI7 41-326).
T1 construct: whole, on cells; Over-expressed on HEK293 (some pools flag-tagged) or endogenous on Jurkat, CA46, T cells, NK cells, TILs; also called hPVRIG; HEK hPVRIG
T1 sequence (looked up): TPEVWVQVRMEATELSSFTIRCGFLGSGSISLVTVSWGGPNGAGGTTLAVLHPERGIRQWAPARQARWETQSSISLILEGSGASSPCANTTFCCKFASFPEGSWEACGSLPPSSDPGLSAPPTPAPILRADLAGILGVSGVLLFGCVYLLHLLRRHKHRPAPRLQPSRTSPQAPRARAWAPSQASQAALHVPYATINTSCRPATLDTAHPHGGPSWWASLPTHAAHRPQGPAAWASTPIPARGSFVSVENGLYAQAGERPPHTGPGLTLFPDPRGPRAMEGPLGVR
Kind of test: FACS dose titration on PVRIG over-expressing HEK293 cells. The procedure:
FACS screening of the reformatted antibodies was done similarly to the PPE based screen described herein, except that a dose-dependent titration of the purified antibodies was performed. The human PVRIG over-expressing HEK293 cells, or the un-transfected HEK293 cells, were incubated with varying concentrations (0-10 μg/ml) of the anti PVRIG antibodies or isotype controls in FACS buffer at 4° C. for 60 mins. […] Cells were washed twice and re-suspended in a final volume of 80 μl of FACS buffer and Propidium Iodide (Biolegend cat #421301) diluted 1:1000. Samples were analyzed using an Intellicyt HTFC screening system (Intellicyt). Data was analyzed using FlowJo (DeNovo), exported to Excel (Microsoft) and plotted in GraphPad Prism (GraphPad Software, Inc.).
All unique ELISA and FACS binders were reformatted for expression as human IgG1 molecules in Expi293 cells. […] These reformatted antibodies were tested for retained binding to PVRIG over-expressing HEK293 cells alongside an irrelevant human IgG1 isotype control. All antibodies were also tested against un-transfected HEK293 cells.

B1: CPA.7.018 human IgG1 (antibody, V domains shown)
VH: EVQLVQSGAEVKKPGASVKVSCKVSGYTLTELSMHWVRQAPGKGLEWMGGFDPEDGETIYAQKFQGRVTMTEDTSTDTAYMELSSLRSEDTAVYYCATEVPMVRGARRYYYYMDVWGKGTTVTVSS
VL: DVVMTQSPLFLAVTPGEPASISCRSSQTLLYINENNYLDWYVQKPGQSPQLLIYLGSTRASGVPDRFSGGGSGTDFTLTISRVEAEDVGLYYCMQGLQTPPTFGQGTRLEIKR
Broadly, the Kd is the free concentration of one partner at which half of the binding sites on the other are occupied at equilibrium, for simple one-to-one binding. Read a high Kd as lower affinity. On to B1, for which the Kd amounted to 9.29 nM.

B2: CPA.7.034 human IgG1 (antibody, V domains shown)
VH: EVQLVQSGAEVKKPGASVKVSCKVSGYTLTELSMHWVRQAPGKGLEWMGGFDPEDGETIYAQKFQGRVTMTEDTSTDTAYMELSSLRSEDTAVYYCATEDPGPVAGPYYYYGMDVWGQGTTVTVSS
VL: DVVMTQSPLVLPVTPGEPASISCRSSQSLLYINGYHYLDWYVQRPGQSPQLLIFLGSTRASGVPDRFSGSGSGTDFTLEISKVEAEDVGIYFCMQALQTPPTFGGGTKVEIKR
notes: also called CPA.7.34
In turn, B2 displayed a Kd of 14.2 nM.

B3: CPA.7.016 human IgG1 (antibody, V domains shown)
VH: EVQLVQSGAEVKKPGSSVKVSCKTSGGTFSSSAISWVRQAPGQGFEWMGGIIPIYGITDYAQKFQGRVTITTDESTSTAYMELSSLTSEDTAVYYCARDDTARRVRGVPYYYYYAMDVWGQGTTVTVSS
VL: EIVLTQSPGTLSLSPGERATLSCRASQSVSSYLAWYQQKPGQAPRLLIYDASNRATGIPARFSGSGSGTDFTLTISSLQSEDFAVYYCQQYDDWPQTFGQGTRLEIKR
As to B3, binding was put at a Kd of 22 nM.

B4: CPA.7.033 human IgG1 (antibody, V domains shown)
VH: QVQLVQSGAEVKKPGSSVKVSCKASGGTFSSSAISWVRQAPGQGFEWMGGIIPIYGITDYAQKFQGRVTITTDESTSTAYMELSSLTSEDTAVYYCARDDTARRVRGVPYYYYYAMDVWGQGTTVTVSS
VL: ETTLTQSPAFMSATPGDEVNISCKASQDIDDDVSWYQQKPGGAPIFLIQEASTLVPGIPPRFSGSGFGTDFTLTIKNMESEDAAYYFCLQHDNLPLTFGGGTKVDIKR
Turning to B4, the affinity, expressed as Kd, was 12.8 nM.

B5: CPA.7.004 human IgG1 (antibody, V domains shown)
VH: EVQLVQSGAEVKKPGASVKVSCKVSGYTLTELSMHWVRQAPGKGLEWMGGFDPEDGETIYAQKFQGRVTMTEDTSTDTAYMELSSLRSEDTAVYYCATVSRVRGVINYYYYMDVWGKGTTVTVSS
VL: DVVMTQSPLSLPVTPGEPASISCRSSQSLLYRNGNNYLDWYLQKPGQSPQLLIYLGSNRASGVPDRFSGSGSGTDFTLKISRVEAEDVGVYYCMQALQTPPTFGGGTKLEIKR
B5 displayed a Kd of 21.7 nM.

B6: CPA.7.023 human IgG1 (antibody, V domains shown)
VH: EVQLVQSGAEVKKPGASVKVSCKVSGYTLTELSMHWVRQAPGKGLEWMGGFDPEDGETIYAQKFQGRVTMTEDTSTDTAYMELSSLRSEDTAVYYCATDSRDGPAARGGYYYYMDVWGQGTTVTVSS
VL: DVVMTQSPLSLPVTLGQPASISCRSSQSLLYINGYNYLDWYLQKPGQSPQLLIYLGSNRASGVPDRFSGSGSGTDFTLKISRVEAEDVGVYYCMQALQTPPTFGQGTKVEIKR
B6 showed a dissociation constant Kd of 4.08 nM.

B7: CPA.7.009 human IgG1 (antibody, V domains shown)
VH: EVQLVQSGAEVKKPGASVKVSCKVSGYTLTELSMHWVRQAPGKGLEWMGGFDPEDGETIYAQKFQGRVTMTEDTSTDTAYMELSSLRSEDTAVYYCATAKPGIAVAGQNYYYYYMDVWGKGTTVTVSS
VL: DVVMTQSPLSLPVTPGEPASISCRSSQSLLYRNGNNYLDWYLQKPGQSPQLLIYLGSNRASGVPDRFSGSGSGTDFTLKISRVEAEDVGVYYCMQALQTPPTFGGGTKLEIKR
B7 yielded a dissociation constant Kd of 33 nM.

B8: CPA.7.014 human IgG1 (antibody, V domains shown)
VH: EVQLVQSGAEVKKPGASVKVSCKVSGYTLTELSMHWVRQAPGKGLEWMGGFDPEDGETIYAQKFQGRVTMTEDTSTDTAYMELSSLRSEDTAVYYCATGVTTYYYYGMDVWGQGTTVTVSS
VL: DVVMTQSPLSLPVTPGEPASISCRSSQSLLYSNGNNFLDWYLQKPGQSPRLLISLGSNRASGVPDRFSGSGSGTDFTLKISRVEAEDVGIYYCMQALQTPPTFGQGTKVEIKR
Molecule B8 gave a Kd of 2.04 nM.

B9: CPA.7.022 human IgG1 (antibody, V domains shown)
VH: EVQLVQSGAEVKKPGASVKVSCKVSGYTLTELSMHWVRQAPGKGLEWMGGFDPEDGETIYAQKFQGRVTMTEDTSTDTAYMELSSLRSEDTAVYYCATGVPAAIGVYYYYYYMDVWGKGTTVTVSS
VL: DVVMTQSPLSLPVTPGEPASISCRSSQSLLYSNGYNYLDWYLQKPGQSPQLLISLGSNRASGVPDRFSGSGSGTDFTLKISRVEAEDVGVYYCMQALQSPVTFGGGTKVEIKR
On to B9, for which the affinity, expressed as Kd, was 4.17 nM.

B10: CPA.7.024 human IgG1 (antibody, V domains shown)
VH: EVQLVQSGAEVKKPGSSVKVSCKASGGTFSSYAISWVRQAPGQGLEWMGGIIPIFGTANYAQKFQGRVTITADESTSTAYMELSSLRSEDTAVYYCARDAYYYDSSGYYNPDAFDIWGQGTMVTVSS
VL: DVVMTQSPLSLPVTPGEPASISCRSSQSLLHSNGYNYLDWYLQKPGQSPQLLIYLGSSRASGVPDRFSGSVSGTDFTLKISRVEAEDVGVYYCMQGLQTPRTFGRGTKLEIKR
The molecule B10 yielded a Kd of 9.08 nM.

B11: CPA.7.011 human IgG1 (antibody, V domains shown)
VH: EVQLVQSGAEVKKPGASVKVSCKVSGYTLTELSMHWVRQAPGKGLEWMGGFDPEDGETIYAQKFQGRVTMTEDTSTDTAYMELSSLRSEDTAVYYCATGPAAAGVGYYYYMDVWGKGTTVTVSS
VL: DVVMTQSPLSLPVTPGEPASISCRSSQSLLYRNGYNYLDWYLQKPGQSPQLLIYLGSNRASGVPDRFSGSGSGTDFTLKISRVEAEDVGVYYCMQALQTPPTFGQGTKVEIKR
Regarding B11, the affinity, expressed as Kd, was 66 nM.

B12: CPA.7.040 human IgG1 (antibody, V domains shown)
VH: EVQLVQSGAEVKKPGASVKVSCKVSGYTLTELSMHWVRQAPGKGLEWMGGFDPEDGETIYAQKFQGRVTMTEDTSTDTAYMELSSLRSEDTAVYYCATGVPAAIGVYYYYYYMDVWGKGTTVTVSS
VL: DVVMTQSPLSLPVTPGEPASISCRSSQSLLYRNGYNYLDWYLQKPGQSPQLLIYWGSYRASGVPDRFSGSGSGTDFTLKISRVEAEDVGVYYCMQAVQNPPTFGQGTKVDIKR
For B12, the Kd came out at 0.79 nM.

B13: CPA.7.047 human IgG1 (antibody, V domains shown)
VH: EVQLVQSGAEVKKPGASVKVSCKVSGYTLTELSMHWVRQAPGKGLEWMGGFDPEDGETIYAQKFQGRVTMTEDTSTDTAYMELSSLRSEDTAVYYCATAFPEATISYYYYMDVWGKGTTVTVSS
VL: DVVMTQSPLSLPVTPGEPASISCRSSQSLLYRNGYNYLDWYLQKPGQSPQLLIYWGSYRASGVPDRFSGSGSGTDFTLKISRVEAEDVGVYYCMQAVQNPPTFGQGTKVEIKR
B13: the Kd amounted to 5.36 nM.

B14: CPA.7.012 human IgG1 (antibody, V domains shown)
VH: EVQLVETGGGLIQPGRSLRLSCAASGFTFSSYAMHWVRQAPGKGLEWVAVISYDGSNKYYADSVKGRFTISRDNSKNTLYLQMNSLRAEDTAVYYCARDVMVYCSSTSCYFYGMDVWGQGTTVTVSS
VL: DIQMTQSPSSLSASVGDRVTVTCQASQDIRDYLNWYQKKPGKAPKLLIYDASNLEAGVPSRFSGSGSGTDFTFTISGLQPEDVATYYCQQFENLPITFGQGTRLEIKR
Molecule B14 had a Kd of 0.3 nM.

B15: CPA.7.019 human IgG1 (antibody, V domains shown)
VH: QVQLQESGPGLVKSSETLSLTCSVSGGSISNSNYYWGWIRQPPGKGLEWIGGIYYSGSTYYNPSLESRVTISEDTSKNQISLKLSSVTAADTAVYYCARGAWELSLGDWFDPWGPGTLVTVSS
VL: QSVLTQPPSVSGAPGQRVTISCTGSSSNIGAGYDIQWYQQLPGTAPKLLIYGNNNRPSGVPDRFSGSRSGTSASLAITGLQAEDEADYYCQSYDSSLSVYVVFGGGTQLTVLG
Molecule B15 returned a Kd of 0.45 nM.

B16: CPA.7.015 human IgG1 (antibody, V domains shown)
VH: QITLKESGGGVVQPGGSLRLSCAASGFTFSSYGMHWVRQAPGKGLEWVAFIRYDGSNKYYADSVKGRFTISRDNSKNTLYLQMNSLRAEDTAVYYCARDLFDFWWDGMDVWGQGTTVTVSS
VL: EIVLTQSPGTLSLSPGEKATLSCRVSQSVSSMYLAWYQQKPGQAPRLLIYGASYRATGIPDRFSGSGSGTDFNLTISRLEPEDFAVYYCQQYVSSPMYTFGLGTKLEIKR
Molecule B16 registered a Kd of 1.34 nM.

B17: CPA.7.017 human IgG1 (antibody, V domains shown)
VH: QVQLVQSGAEVKKPGSSVKVSCKASGGTFNNYGISWVRQAPGKGLEWMGQIIPLFGTTKYAQKFQGRVTIAADEPTSTAYMELGSLRSEDTAIYYCARDRMAADGMAVFDYWGQGTLVTVSS
VL: QSVLTQPPSVSGTPGQKVIISCSGSSSNIGRHFVFWYQQLPGTAPKLLIYKNDERPSGVPDRFSGSKSGTSASLAVSGLRSEDEADYYCSSWDAALNGVVFGGGTKLTVLG
B17 yielded a dissociation constant Kd of 1.82 nM.

B18: CPA.7.010 human IgG1 (antibody, V domains shown)
VH: EVQLVESGGGLVQPGRSLRLSCAASGFTFSSYAMHWVRQAPGKGLEWVAVISYDGSNKYYADSVKGRFTISRDNSKNTLYLQMNSLRAEDTAVYYCASSPIGYSYGYWGGMDVWGQGTTVTVSS
VL: QAVLTQPASLSASPGASASLTCTLRSGIDVRTNKIFWYQVKPGSPPQHLLTFQSDSDKQQGSGVPSRFSGSKDASANAGILIISGLQSEDEADYYCLIWHTSGWVFGGGTQLTVLG
On to B18, for which the Kd turned out to be 21.9 nM.
